Test results: article PMC11643816, “Determination of Lactoferrin Using High-Frequency Piezoelectric Quartz Aptamer Biosensor Based on Molecular Bond Rupture”

Experiments:
alpha-lactalbumin = target: T1, alpha-lactalbumin (UniProt P00711); test: QCM bond rupture sandwich; details: 100 ng/mL; sandwich with aptamer II beads; 5'-SH-(CH2)6; 30 °C, 70 min per binding step; aptamer I 3 μmol/L on gold with MCH block; aptamer II beads stored in 10 mmol/L PBS; binding buffer, salt and pH not stated
T1 sequence: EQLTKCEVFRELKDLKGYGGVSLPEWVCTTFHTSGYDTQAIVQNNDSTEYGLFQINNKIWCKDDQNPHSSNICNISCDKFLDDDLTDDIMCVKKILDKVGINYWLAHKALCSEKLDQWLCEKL

lactoferrin (LF) [1] = target: T2, lactoferrin (LF) (UniProt P24627 20-708); test: QCM bond rupture sandwich; cyclic voltammetry; aptamer II on magnetic beads, LF captured by aptamer I; 1180 Hz shift at 100 ng/mL LF; 30 °C, 70 min per binding step; aptamer I 3 μmol/L on gold with MCH block; aptamer II beads stored in 10 mmol/L PBS; binding buffer, salt and pH not stated; details: protein: commercial
lactoferrin (LF) [2] = target: T2, lactoferrin (LF); test: QCM bond rupture sandwich; cyclic voltammetry; aptamer I on gold, 100 ng/mL LF; 30 °C, 70 min per binding step; aptamer I 3 μmol/L on gold with MCH block; aptamer II beads stored in 10 mmol/L PBS; binding buffer, salt and pH not stated; details: protein: commercial

T2 sequence (P24627 20-708): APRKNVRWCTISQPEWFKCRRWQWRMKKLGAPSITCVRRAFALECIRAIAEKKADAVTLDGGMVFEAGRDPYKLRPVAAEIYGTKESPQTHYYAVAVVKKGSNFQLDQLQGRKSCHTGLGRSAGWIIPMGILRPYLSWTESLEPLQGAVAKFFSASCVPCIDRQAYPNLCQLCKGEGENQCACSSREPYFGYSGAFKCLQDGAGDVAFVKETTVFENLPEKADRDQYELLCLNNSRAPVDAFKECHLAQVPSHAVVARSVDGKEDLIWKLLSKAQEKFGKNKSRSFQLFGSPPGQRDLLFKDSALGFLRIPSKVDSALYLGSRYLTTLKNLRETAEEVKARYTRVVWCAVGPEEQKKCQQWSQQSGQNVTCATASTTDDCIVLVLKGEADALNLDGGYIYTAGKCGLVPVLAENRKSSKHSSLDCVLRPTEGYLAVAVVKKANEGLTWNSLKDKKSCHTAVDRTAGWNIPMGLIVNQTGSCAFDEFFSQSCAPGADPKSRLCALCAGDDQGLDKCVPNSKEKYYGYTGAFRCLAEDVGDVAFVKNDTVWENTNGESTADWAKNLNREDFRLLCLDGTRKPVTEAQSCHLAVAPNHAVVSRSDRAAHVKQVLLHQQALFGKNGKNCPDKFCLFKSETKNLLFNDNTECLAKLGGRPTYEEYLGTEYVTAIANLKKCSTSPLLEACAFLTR

“TGGTGCTGCCCCTAGTCTCCGGCTGCTTCTTGG [aptamer I]” gave a binding signal (% of LF signal) (alpha-lactalbumin) of 8.39.

AGGCAGGACACCGTAACCGGTGCATCTATGGCTACTAGCTTTTCCTGCCT (ssDNA, 5'-SH-(CH2)6 as printed) [aptamer II]: binds (lactoferrin (LF) [1]).

TGGTGCTGCCCCTAGTCTCCGGCTGCTTCTTGG (ssDNA, 5'-SH-(CH2)6) [aptamer I]: binds (lactoferrin (LF) [2]).
